Consider ten molecules from publication PMC7278358, “Kinetic parameters of human aspartate/asparagine–β-hydroxylase suggest that it has a possible function in oxygen sensing” (The Journal of Biological Chemistry, 2020).

Several values for one entry are separate records, joined by “and”; a condition that tells them apart may be missing. Equal entries are not always repeated. Where two headings read alike, the source gives them in different places. Positions of bridges follow the written chain, without caps; N, C: chain ends. Non-standard residues stand in square brackets, D forms with d. No end group written: not given here.

For series [1], the system named is human 2OG oxygenases, including the PHDs and FIH. The following applies: read-out: 2OG Km app, most other human 2OG oxygenases; cited from earlier work.
Series [2] deals with T1, human His6–AspH315–758 (Homo sapiens, UniProt Q12797).
T1 construct: a pET-28a(+) vector encoding for N-terminal His6-tagged AspH315–758 (His6–AspH315–758) was transformed into Escherichia coli BL21 (DE3) cells; made in house; host or cells: Escherichia coli BL21 (DE3)
T1 sequence (Q12797 315-758): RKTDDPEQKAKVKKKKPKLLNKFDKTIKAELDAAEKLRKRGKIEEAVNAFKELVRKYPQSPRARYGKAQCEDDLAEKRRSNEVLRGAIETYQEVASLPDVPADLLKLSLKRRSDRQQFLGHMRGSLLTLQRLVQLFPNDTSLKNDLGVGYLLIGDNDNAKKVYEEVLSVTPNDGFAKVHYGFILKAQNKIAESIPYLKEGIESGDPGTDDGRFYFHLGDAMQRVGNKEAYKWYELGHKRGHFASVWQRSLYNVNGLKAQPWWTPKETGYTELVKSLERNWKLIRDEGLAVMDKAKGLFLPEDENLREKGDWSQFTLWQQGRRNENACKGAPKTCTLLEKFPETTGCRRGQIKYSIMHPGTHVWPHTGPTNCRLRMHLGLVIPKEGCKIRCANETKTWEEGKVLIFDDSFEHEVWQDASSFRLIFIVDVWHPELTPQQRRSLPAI
The experiment in a line: AspH steady-state kinetics from initial hydroxylation rates (SPE-MS, Michaelis–Menten). Format: biochemical. The protocol: (§1) The reactions were monitored with a rate of 1 sample/25 s using the same SPE-MS configuration as described above. The data were analyzed as described above, and the slopes of the initial reaction rates (Fig. S6) were fitted to a Michaelis-Menten plot using nonlinear regression (GraphPad Prism 5). […] The reactions were monitored by SPE-MS with a rate of 1 sample/25 s using identical configurations as before. The data were analyzed as described, and the slopes of the initial reaction rates (Fig. […] The Morrison equation is as follows, where I is the inhibitor concentration, Ki is the dissociation constant of the inhibitor, ET is the total concentration of active enzyme, and vi/v0 is the fractional enzyme activity ([94]).

Another series deals with bovine AspH. The arrangement: method as in PMID 2187868. The following applies: cited from earlier work.
The target of series [3] is T2, His6–AspH_(315–758) (human) (UniProt Q12797).
T2 sequence: T1 sequence (Q12797 315-758)

Series [4] addresses T2, His6–AspH_(315–758) (human). The source holds these as a separate data set.
The target in series [5] is T1, human His6–AspH315–758. The experiment in a line: AspH activity assay: SPE-MS time course of peptide hydroxylation. The format is biochemical. To be noted: 0.1 μM His6–AspH315–758, 2.0 μM peptide, 100 μM LAA, 10 μM FAS, 10 μM 2OG, 50 mM HEPES pH 7.5, 20 °C. As for the experimental part: The substrate mixture (1.0 ml) containing 2.4 μM peptide, 120 μM LAA, 12 μM FAS, and 12 μM 2OG in 50 mM HEPES buffer (pH 7.5) was added into a well of a 2-ml volume 96-well assay plate (Greiner) at 20 °C under an ambient atmosphere. A blank sample was analyzed using a RapidFire RF 360 high-throughput sampling robot (Agilent) attached to an Agilent 6530 accurate mass quadrupole TOF mass spectrometer operated in the positive ionization mode. The enzyme mixture (0.2 ml), containing 0.6 μM His6–AspH315–758 in 50 mM HEPES buffer (pH 7.5), was then added to the well and thoroughly mixed. The RapidFire sampling robot was programmed to analyze 1 sample/min. The following SPE-MS conditions were used: assay samples were aspirated under vacuum for 0.4 s and loaded onto a C4 SPE cartridge. After loading, the C4 SPE cartridge was washed with 0.1% (v/v) aqueous formic acid to remove nonvolatile buffer salts (5 s, 1.5 ml/min). The peptide was then eluted from the SPE cartridge with 0.1% (v/v) aqueous formic acid in 85/15 (v/v) acetonitrile/water into the mass spectrometer (5 s, 1.25 ml/min). The SPE cartridge was re-equilibrated with 0.1% (v/v) aqueous formic acid (1 s, 1.25 ml/min). The mass spectrometer parameters were capillary voltage (3500 V), fragmentor voltage (150 V), gas temperature (350 °C), gas flow (12 liters/min). The m/z + 2 charge states of the substrate peptide and the product (hydroxylated) peptide were used to extract ion chromatogram data; peak areas were integrated using RapidFire Integrator software (Agilent). The data were exported into Microsoft Excel and used to calculate the percentage of conversion of the hydroxylation reaction using the equation: % conversion = 100 × (integral product peptide)/(integral substrate peptide + integral product peptide).

Substrate in series [6]: O=C1O[C@H]([C@@H](O)CO)C(O)=C1O
The experiment in a line: AspH steady-state kinetics from initial hydroxylation rates (SPE-MS, Michaelis–Menten). The format is biochemical, human. The following applies: other: LAA varied; 50 μM FAS, 50 μM 2OG; hFX–CP101–119 substrate; n = 3; pH 7.5; 20.0 °C. The protocol: as §1

The mark [7] stands for this setting: 2OG varied, 50 μM FAS, hFX–CP101–119 substrate, n = 3.
The mark [8] stands for this setting: Fe(II) varied, in the absence of LAA, 50 μM 2OG, hFX–CP101–119 substrate, n = 3.
Where [9] appears, read: Fe(II) varied, in the presence of LAA (100 μM), 50 μM 2OG, hFX–CP101–119 substrate, n = 3.

Usually Km stands for the substrate concentration at which the rate is half of its maximum. For orientation: kcat means the number of substrate molecules converted per active site and unit of time at saturation. A word on the kcat/Km: it is the second-order rate constant that governs catalysis at low substrate concentration.

As to `O=C(O)CCC(=O)C(=O)O` [2OG, 2-oxoglutarate], the Km in series [1] was 1 to 25 µM; at human His6–AspH315–758 [2] (2OG varied, 50 μM FAS, monitoring hydroxylation of hFX–CP101–119, pH 7.5, 20 °C, n = 3, read-out: Km app), ~0.6 µM and 0.6 µM; in the series on bovine AspH (read-out: 2OG Km app) it was ~5 µM. Also, on human His6–AspH315–758 [2] (setting [7]), the kcat was 0.19 ± 0.03 s⁻¹. Besides, the kcat/Km at human His6–AspH315–758 [2] (setting [7]) was determined as 320000 ± 70000 M⁻¹ s⁻¹. The same molecule displayed a vmax app at human His6–AspH315–758 [2] (2OG varied, 50 μM FAS, monitoring hydroxylation of hFX–CP101–119, pH 7.5, 20 °C, n = 3) of 0.0168 ± 0.0005 µM/s.

Take “ammonium iron(II) sulfate hexahydrate [Fe(II)]”: the vmax app came to 0.0168 ± 0.0004 µM/s at human His6–AspH315–758 [2] (Fe(II) (FAS) varied, in the absence of LAA, 50 μM 2OG, monitoring hydroxylation of hFX–CP101–119, pH 7.5, 20 °C, n = 3) and 0.0171 ± 0.0005 µM/s at human His6–AspH315–758 [2] (Fe(II) (FAS) varied, in the presence of LAA (100 μM), 50 μM 2OG, monitoring hydroxylation of hFX–CP101–119, pH 7.5, 20 °C, n = 3). Moreover, the Km at human His6–AspH315–758 [2] (Fe(II) (FAS) varied, in the absence of LAA, 50 μM 2OG, monitoring hydroxylation of hFX–CP101–119, pH 7.5, 20 °C, n = 3, read-out: Km app) is 4.76 ± 0.48 µM; on human His6–AspH315–758 [2] (Fe(II) (FAS) varied, in the presence of LAA (100 μM), 50 μM 2OG, monitoring hydroxylation of hFX–CP101–119, pH 7.5, 20 °C, n = 3, read-out: Km app), 1.42 ± 0.16 µM; with bovine AspH (read-out: Km app for Fe(II)) it was 3 µM. For the same molecule, the kcat on human His6–AspH315–758 [2] (setting [8]) and on human His6–AspH315–758 [2] (setting [9]) was 0.19 ± 0.03 s⁻¹ in each case. In addition, the kcat/Km on human His6–AspH315–758 [2] (setting [8]) amounted to 40000 ± 10000 M⁻¹ s⁻¹; on human His6–AspH315–758 [2] (setting [9]), 130000 ± 30000 M⁻¹ s⁻¹.

“hC1r–CP_(165–183) (from UniProt P00736 165-183) (peptide)”: the Km of AspH for the peptide substrate (steady-state kinetics of peptide hydroxylation, SPE-MS, 50 mM HEPES pH 7.5, 20 °C) in series [3] is 3 μM.

For the molecule “hC1s–CP_(147–165) (from UniProt P09871 147-165) (peptide)”, in series [3], the Km of AspH for the peptide substrate (steady-state kinetics of peptide hydroxylation, SPE-MS, 50 mM HEPES pH 7.5, 20 °C) amounted to 36.5 μM.

As for “hFXII–CP_(110–128) (from UniProt P00748 110-128) (peptide)”, in series [4], the hydroxylation of the peptide by AspH (SPE-MS), t = 15 min to 200 min is < 1%.

“hFX–CP101–119: thioether-linked cyclic peptide of hFX amino acids 101–119, Cys110 thiol linked to N-terminal chloroacetyl group, C-terminal amide ({CH2CO}-[dA]KDGLGEYTCTSLEGFEGK-NH2; thioether N-10; SMILES CC(C)C[C@@H]1NC(=O)CNC(=O)[C@H](CC(=O)O)NC(=O)[C@H](CCCCN)NC(=O)[C@@H](C)NC(=O)CSC[C@@H](C(=O)N[C@H](C(=O)N[C@@H](CO)C(=O)N[C@@H](CC(C)C)C(=O)N[C@@H](CCC(=O)O)C(=O)NCC(=O)N[C@@H](Cc2ccccc2)C(=O)N[C@@H](CCC(=O)O)C(=O)NCC(=O)N[C@@H](CCCCN)C(N)=O)[C@@H](C)O)NC(=O)[C@H]([C@@H](C)O)NC(=O)[C@H](Cc2ccc(O)cc2)NC(=O)[C@H](CCC(=O)O)NC(=O)CNC1=O)”: in the series with human His6–AspH315–758 [2] (peptide as varied substrate, 0.1 μM His6–AspH315–758, 100 μM LAA, 20 μM FAS, 20 μM 2OG, 50 mM HEPES pH 7.5, 20 °C, SPE-MS, mean ± S.D., n = 3), the vmax was 0.0178 ± 0.0013 µM/s. In the series with human His6–AspH315–758 [2] (peptide as varied substrate, 0.1 μM His6–AspH315–758, 100 μM LAA, 20 μM FAS, 20 μM 2OG, 50 mM HEPES pH 7.5, 20 °C, SPE-MS, mean ± S.D., n = 3, read-out: Km), the Km came to 1.19 ± 0.26 µM. Besides, the kcat/Km in the series with human His6–AspH315–758 [2] (peptide as varied substrate, 100 μM LAA, 20 μM FAS, 20 μM 2OG, pH 7.5, 20 °C, mean ± S.D., n = 3) turned out to be 170000 ± 50000 M⁻¹ s⁻¹. Further, the kcat with human His6–AspH315–758 [2] (peptide as varied substrate, based on active enzyme 90.8 nM (2,4-PDCA titration), 100 μM LAA, 20 μM FAS, 20 μM 2OG, pH 7.5, 20 °C, mean ± S.D., n = 3) was determined as 0.20 ± 0.03 s⁻¹. Besides, the “substrate/product inhibition of AspH activity” value in the series with human His6–AspH315–758 [2] (up to 16 μM hFX–CP101–119) is “neither hFX–CP101–119 nor its hydroxylated product inhibited AspH activity”. Moreover, the “time to complete hydroxylation” value in the series with human His6–AspH315–758 [5] (SPE-MS) is 7 min. Also, the “Hydroxylation t = 15 min” value with human His6–AspH315–758 [5] (% conversion by SPE-MS) was >95%; with human His6–AspH315–758 [5] (% conversion by SPE-MS, listed as hFX-CP101-119), > 95%. Besides, the “Hydroxylation t = 200 min” value in the series with human His6–AspH315–758 [5] (% conversion by SPE-MS) is reported as >95%.

Regarding “hFX–CP_(101–119) (from UniProt P00742 101-119) (peptide)”, in series [3], the Km of AspH for the peptide substrate (steady-state kinetics of peptide hydroxylation, SPE-MS, 50 mM HEPES pH 7.5, 20 °C) came to 1.19 μM.

With “hFX–EGFD1_86–124: EGFD1 (amino acids 86–124) of human coagulation factor X (DGDQCETSPCQNQGKCKDGLGEYTCTCLEGFEGKNCELF-NH2; also: mixture of canonical and noncanonical disulfide isomers; UniProt P00742 86-124, looked up, fragment)”, the “conversion at which hydroxylation slowed (consumption of the noncanonical disulfide isomer)” value with human His6–AspH315–758 [5] (after 5 min) is given as ~45%.

As for “hProC–CP_(111–129) (from UniProt P04070 111-129) (peptide)”, the Km of AspH for the peptide substrate (steady-state kinetics of peptide hydroxylation, SPE-MS, 50 mM HEPES pH 7.5, 20 °C) in series [3] turned out to be 1.71 μM.

B1: human His6–AspH315–758 (Homo sapiens) (protein)
chain: T1 sequence (Q12797 315-758)
notes: a pET-28a(+) vector encoding for N-terminal His6-tagged AspH315–758 (His6–AspH315–758) was transformed into Escherichia coli BL21 (DE3) cells; made in house; host or cells: Escherichia coli BL21 (DE3)
In the case of B1, in series [6], the kcat is 0.16 ± 0.03 s⁻¹.
